In a protein production outcome set (Wang et al. 2014) one finds protein production data, which are given here for 20 sequences.
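Further: failed if final PepcDB status was selected cloned or expressed and not failed if soluble or beyond.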

The nature of the data set: label from the status in PepcDB records.
Regarding “MAEHGETQADEEEEEQVWSWGAGTDGQLGTTKLQDELLPQLLSLTSLPSISMLACGGAHVIALTSGGKVFTWGRGSSGQLGHGDILNITLPKLVSFFDDSVITQAAAGWSHSGFVSDSGCIFTCGNGSFGQLGHGDTLSLSTPAKVSHFNNDSVKMVACGMRHSLVLFAGNQVCGFGSGKRGQLGFSSDRIKSVNLPCVVSGLKDVEVVRISANGDHSAAISADGQFFSWGRGFCGGPDVHAPQSLPSPLSFREVAVGWNHALLLTVDGEVFKLGSTLNKQPEKQQLQIDSSEALFEKVPDFDGVKVMQIAAGAEHSAAVTENGEVKTWGWGEHGQLGLGNTNDQTSPELVSLGSIDLRTKEIKVYCGSGFTYAVKRKQELSPTSS”, the protein production result is recorded as “failed”. To “MAEILRLSPAICAYPDETYENLKIEVVLPGVEKENISFKVVEDGFYVKATKEGVEYTDSYAVCCPISPEKATATYSNGVLKVNVPYQQPFEKAVDVKIE” belongs “failed”. To “MAEITENTKKILEVILNLKEGQVMSYRDVGALAGLPNGARQVSRILHSMSKKYELPWWRVVRSDRTIGLPEPAKSEQMELLKKEGISFTAQGKIIIEDELLLEHHHHHH” belongs “not failed”; to “MAEKRTVRPFAGTERRAKGWIQEAALRMLNNNLHPDVAERPDELIVYGGIGKAARNWECYEAIVDTLLRLENDETLLIQSGKPVAVFRTHPDAPRVLIANSNLVPAWATWDHFHELDKKGLIMYGQMTAGSWIYIGSQGIVQGTYETFAEVARQHFGGTLAGTITLTAGLGGMGGAQPLAVTMNGGVCLAIEVDPARIQRRIDTNYLDTMTDSLDAALEMAKQAKEEKKALSIGLVGNAAEVLPRLVETGFVPDVLTDQTSAHDPLNGYIPAGLTLDEAAELRARDPKQYIARAKQSIAAHVRAMLAMQKQGAVTFDYGNNIRQVAKDEGVDDAFSFPGFVPAYIRPLFCEGKGPFRWVALSGDPEDIYKTDEVILREFSDNERLCHWIRMAQKRIKFQGLPARICWLGYGERAKFGKIINDMVAKGELKAPIVIGRDHLDSGSVASPNRETEGMKDGSDAIADWPILNALLNAVGGASWVSVHHGGGVGMGYSIHAGMVIVADGTKEAEKRLERVLTTDPGLGVIRHADAGYELAIRTAKEKGIDMPMLK”, “not failed”. To “MAEKVKSGQVFNLLCIFSIFFFLFVLSVNVSADVDSERAVPSEDKTTTVWLTKIKRSGKNYWAKVRETLDRGQSHFFPPNTYFTGKNDAPMGAGENMKEAATRSFEHSKATVEEAARSAAEVVSDTAEAVKEKVKRSVSGGVTQPSEGSEEL” belongs “failed”. Regarding “MAELYVKPGNKERGWNDPPQFSYGLQTQTGGPKRTPLTKRVAAPQDGSPRAPETSGPPPVDHPPPSSKASRPPPMGSCPATGVEPPSSPVIESETLIEDVLRPLEQALEDCHGHTKKQVCDDISRRLALLREQWAGGKLSIPVKKRMALLVQELLHHQWDAADDIHRSLMVDHVTEVSQWMVGVKRLIAEKKSLSSEETKEEKFTVEPENQTIPGFQQPS”, the protein production entry is “not failed”. Consider “MAEPLQPDPGAAEDAAAQAVETPGWKAPEDAGPQPGSYEIRHYGPAKWVSTSVESMDWDSAIQTGFTKLNSYIQGKNEKEMKIKMTAPVTSYVEPGSGPFSESTITISLYIPSEQQFDPPRPLESDVFIEDRAEMTVFVRSFDGFSSAQKNQEQLLTLASILREDGKVFDEKVYYTAGYNSPVKLLNRNNEVWLIQKNEPTKENE”, for which the protein production entry is listed as “failed”. With “MAERAMSVTPYWELTFDADGDVDGRERDRLLAQVAQRKVHDLVVFAHGWNNERSGATRLYSRFFQPVPALAPRARLGYVGVVWPSMIFPDEPIPDFPASVPAEVTAVARPALAKGARQALVEVFPDRATLVEQIARLLERHPDEEASLETFGQLVRLLVEARPQDPQDACAADTLATGGPVSGPEMLSGDTALVCRDFARALDRVASLHGTSAASGAVDFSFTPAGLWDGAHELLRQATYYAMKRRAGTVGERGLGRVLGRLAQAAPDVRVHLVGHSFGGRLVSFALRGLPAGVRTVKSVTLLQGAFSHYAFAARLPHDTHASGALHGLQSRIDGPLVCCYSHFDSALGTMYPLASRMAGDARSAAGELGADFDIGRTLGPRWGAMGHDGVQAVDGTRAFTLAEALRAELPASGCVNVDAAAVVKRGGPPTGAHSDIVHRELAQVVLAAGRIR” the entry was “failed”.

Consider “MAERTLVKPCTSVPPTMVRVPNVTRADALAAARNPLALIAERWTPAPRTVRRAALAALVMAVVIVVTGGAVRLTGSGLGCPTWPKCTDDSLTTTSAMGFHGVIEFGNRMLTYVLCAAVGWAIIAARSQKPWRRSLTRLGWAQFWIVMSNAILGGIVVLVGLNPYTVAAHFLLSTALIAVATLMWQRACEGDGAPRPLVGKAVQQLVWFLVTASVLLIAVGTVVTGAGPHAGDSSDVERMPLDWETVSKLHAVLAWIVVTLTFALWFVLKAVDAPKGPLHRTRDLFLILLAQGVIGYVQYFTDLPEALVALHMLGSCLVWIGVLRVLLSLRERPEAVADLPGPSTESALTRA”, for which the protein production result is given as “failed”. Take “MAESVRLPTPYNRKTEIRPMFTEIILFLLDTVFTLFGMALLLRLWMQLSRLPSRNPVSQGVFQVTDWIVRPLRRIIPGLGGIDWATVFAAYLTAVAFLLCRALVLGADPLGFLPVILALGVLSMLKWGISMVMWVTLLMAVLSWVNPNSPLAAPIWHLTAPLLRPIQRVVPRLGGFDISPLILFVIAQILLMVIANVSRGVA”: the protein production entry is given as “failed”. With “MAETLITKPPLSLSFTSLSSMLPSLSLSTANRHLSVTDTIPLPNSNSNATPPLRIAIIGFGNYGQFLAETLISQGHILFAHSRSDHSSAARRLGVSYFTDLHDLCERHPDVVLLCTSILSIENILKTLPFQRLRRNTLFVDVLSVKEFAKTLLLQYLPEDFDILCTHPMFGPQSVSSNHGWRGLRFVYDKVRIGEERLRVSRCESFLEIFVREGCEMVEMSVTDHDKFAAESQFITHTLGRLLGMLKLISTPINTKGYEALLDLAENICGDSFDLYYGLFVYNNNSLEVLERIDLAFEALRKELFSRLHGVVRKQSFEGEAKKVHVFPNCGENDASLDMMRSEDVVVKYEYNSQVSGSVNDGSRLKIGIVGFGNFGQFLGKTMVKQGHTVLAYSRSDYTDEAAKLGVSYFSDLDDLFEEHPEVIILCTSILSTEKVLESLPFQRLKRSTLFVDVLSVKEFPRNLFLQTLPQDFDILCTHPMFGPESGKNGWNNLAFVFDKVRIGMDDRRKSRCNSFLDIFAREGCRMVEMSCAEHDWHAAGSQFITHTVGRLLEKLSLESTPIDTKGYETLLKLVENTAGDSFDLYYGLFLYNPNAMEQLERFHVAFESLKTQLFGRLHSQHSHELAKSSSPKTTKLLTS” the entry was “failed”; with “MAETVGMILCGGFGKRLRPLTEKIPKPLIEIKEGYTILDKQLFDLKNAGINTVYLLTGFLGERIEERYGDNYKGLRIEYVREEKPLGTLNAIRLGMEAIDGEKQCIIRNGDVVADLNIKKMIHLGEMSDYPLTMFITRMQSPYGIVETSGDKIINFREKPLLDYYINAGVYFSKGNLDFGDFESGDIEKTLFPLMAKENKLGYYREDGLFWMAIDTSKELEEIRKEYRNREDKPWGYEKILINTEKYLTKELFIREGYRTSFHYHEEKDETMYIISGSGYIEFDNRKEYFSKNDTIRIEPGERHSIVAMENTVLHEVSTPHLNDTVRVQDYYTRLEHHHHHH”, “not failed”; with “MAEVERPQLYLVTPPEIDLEIFPDRLAAVLDSTEVACLRLALAGKDEDRIARTGDALREVAHARDVALVIENHVLMVERLGLDGVHLTDGARLVRKLRKDLGPDAILGAFCGRTRHEGINAAEAGADYVAFGPVGTTALGDGSLAEAELFGWWSEMIEVPVVAEGALTPEKVAELAPLTDFFAVGEEIWREEDAAAALRRLLAPLGLEHHHHHH”, “not failed”. Take “MAFLKVVPLEKALEVVQSFKISPGIEEVPIEKGLGRIAAEDIYSPIDVPPFDRATVDGYAVRAEDTFMASEASPVRLKVIGSVHAGEEPKFKLGKGEAAYISTGAMLPGNADAVIQFEDVERVNGEILIYKPAYPGLGVMKKGIDIEKGRLLVKKGERLGFKQTALLSAVGINKVKVFRKPKVAVISTGNEIVPPGNELKPGQIYDINGRALCDAINELGGEGIFMGVARDDKESLKALIEKAVNVGDVVVISGGASGGTKDLTASVIEELGEVKVHGIAIQPGKPTIIGVIKGKPVFGLPGYPTSCLTNFTLLVVPLLLRALGREGKIGKKVARLKHKVFSVKGRRQFLPVKLEGDLAVPILKGSGAVTSFIDADGFVEIPETVESLDEGEEVEVTLFKGW”: the protein production result is given as “not failed”.

In the case of “MAFPQRKRTPSFSSSVLDSVYRSIDESDGLQSDLKGSINENVSSSSSSPSPNKKDDKLTTLRRAIMDEEHWLYARSSTTTTNSSDSSSFSSSEAESYRTKRRLRKLAEQGKRSGDERQRTKRTVMDNDSRLFSKSDDDKKPKAVKIIEELKRSKQPVSPGARLTSFLNSIFQSNAKKVKLCSVGKTTDVKSSSSKSCFSRTRNKTDNNNNNCKKLERSIRFYPVRVTIDGDCRDYAQKHITRVRKPIPEFTAKKSVKEEIKTNDHHTEFTCITRNIGLKDFVRSNKYEGKEEEEDAWSHSSSDLFELDSYRIGMGRYLKELPVYETTDFKTNQAIARSLLL”, the protein production result is “failed”. As to “MAFRITSQLRPVGNQFGGSRRFATTVADGAKQTYNKFSIMGEFAPVAIIGGFVGLAVLMAGHSLKQQLMHAPAISTRKNRRAAVAEVDDPENCVSSADKFINKSWLRKVGQIQDKSKAILSDPTRPNPFTTPRNAETLNSVGVAPKGI”, the protein production entry is recorded as “failed”. With “MAFRMSEQPRTIKIYNLLAGTNEFIGEGDAYIPPHTGLPANSTDIAPPDIPAGFVAVFNSDESSWHLVEDHRGKTVYDVASGDALFISELGPLPENVTWLSPEGEFQKWNGTAWVKDTEAEKLFRIREAEETKNNLMQVASEHIAPLQDAADLEIATEEEISLLEAWKKYRVLLNRVDTSTAQDIEWPALP” the entry was “not failed”.

With “MAFSAPEPELSVVVPTLNEAETVATLLAALAAQRDVALELLLCDGGSTDGTAALVRGRAGDLPFPVTVTETPPGRGRQMNAGAAAARGATFLFLHADSIIADPLALRRGLDHLAAARRSDKRAAGHFRLRFAGDSPSPLAYRFYERKARLHRPGCTHGDQGLLIPREFFDQVGPFDEGLPILEDVRLAERIAAMGTWVLLPAEIITSARRFETEGLRERQTLNAILMNFAAIGWQQGVEELVAGYRSQDRSGRLRLGPHLARIAGLTAALPRQERLRLWYLTGGYVRGNAWQIPLFLDVRNAWRRGGDDGATPLLSLHDRWFDLLTDNPAGRAAAALMTFLWFRLTLRREMKDWPGILRTPLEHHHHHH”, the protein production result was “failed”. To “MAFSPLCGVNCTSRPSASTINTFLTKAQHDVTLTDTDTRIFIKNIKTGVTMEQFRNSLQEFGAMQVYFYEPGSNNDGWAWVGFENKEAALKVIEESEKMQEEMNEENLNEMQNEDNEEQGSNSFYAEDEDKKDEEEEEEEEEY” belongs “failed”; to “MAFWAGGSPSVVDYFPSEDFYRCGYCKNESGSRSNGMWAHSMTVQDYQDLIDRGWRRSGKYVYKPVMNQTCCPQYTIRCRPLQFQPSKSHKKVLKKMLKFLAKGEVPKGSCEDEPMDSTMDDAVAGDFALINKLDIQCDLKTLSDDIKESLESEGKNSKKEEPQELLQSQDFVGEKLGSGEPSHSVKVHTVPKPGKGADLSKPPCRKAKEIRKERKRLKLMQQNPAGELEGFQAQGHPPSLFPPKAKSNQPKSLEDLIFESLPENASHKLEVRLVPVSFEDPEFKSSFSQSFSLYVKYQVAIHQDPPDECGKTEFTRFLCSSPLEAETPPNGPDCGYGSFHQQYWLDGKIIAVGVIDILPNCVSSVYLYYDPDYSFLSLGVYSALREIAFTRQLHEKTSQLSYYYMGFYIHSCPKMKYKGQYRPSDLLCPETYVWVPIEQCLPSLENSKYCRFNQDPEAVDEDRSTEPDRLQVFHKRAIMPYGVYKKQQKDPSEEAAVLQYASLVGQKCSERMLLFRN”, “failed”.
